Assay results published in the RNAGym collection of RNA variant scans (doi:10.7554/elife.90254).

B1: OR4K15 (parent)
chain: GUUAACGGUCAUAGGCCAUGGAAACUAGGAGCACCAUUUCGCUGCCAGUGAAGAAAUGAACAAAGAAAAUCUGGGCCAGGCAGGCAUCAAAAGAAAUAGUCUUGCGCUCAACCAGAAAGUCUGUAAUCAUUUUAAGGGUA

Variants of: B1
Assay: self-cleavage, relative activity (ratio to wild type); higher = more cleavage; in vitro, sequencing; the parent is a self-cleaving ribozyme

Variant	self-cleavage
U39C A118U	0.78
U39A G138A	0.14
U39C A114G	0.72
C40U G99A	0.32
U39C A98G	0.98
C40A A91G	1.76
U39A A135G	1.75
U39C C40U	1.54
U38G A95G	2.17
C40A A135G	1.29
U39A A95G	2.05
U39C A66U	1.28
U39C A116G	0.83
U39C A116C	0.07
U39C U87A	1.92
U39C U130C	1.12
U38G U127C	1.37
C40A A94G	2.28
C40A A114G	0.11
U39C A82U	0.22
C40A A60G	1.56

Variant	self-cleavage
U39C C128U	1.42
U39C C128A	0.73
U39A A66G	1.87
U39C U133C	2.27
U39G A95G	1.81
C40U A118G	1.21
U39C A95U	1.78
U39C A69C	1.33
U38C U132C	1.64
U39C A78G	0.26
U39A A47G	0.44
U39C C105U	0.24
C40U U87C	1.44
U39C A52U	2.16
U39G C105A	0.16
C40U U103A	1.28
U39C A135C	1.38
U39C A96G	1.77
U39C A96U	1.52
U39C A96C	0.78
U39A A125U	2.5

Variant	self-cleavage
U39A A110U	2.06
U39A A110G	0.04
C40G A90G	1.44
U39C G58A	0.67
U39A U97C	1.85
C40A A68G	1.61
U39C G106U	0.02
U38C U133C	0.93
U39A A63G	1.95
U39A U43A	1.66
U39A U43C	1.95
U39G A62G	1.3
C40U G44A	2.32
U39A A91U	0.94
U39C A134G	1.83
U39C A51G	1.5
C40U A62C	1.11
C40U A62G	1.2
U39G A90G	1.08
C40U U100C	1.83
U39A A64U	1.87

Variant	self-cleavage
U39A A64G	0.93
C40U A90G	1.72
U39C A67U	1.9
U39C A67G	1.24
C40U A51U	2
U39C A111G	0.02
U39C A111C	0.01
C40U A98G	0.83
U39A U70C	0.92
U39A A68G	1.32
U39A U127A	1.46
U39A A114G	0.77
U39C U100C	2.44
U39C U100A	0.56
C40U A78U	0.32
C40U A78G	0.44
U39C U70C	0.95
U39G A67U	1.13
U39C A125U	1.8
U39A G115C	0.52
U39A G115U	0.27
